In publication PMC5645412, “AUNIP/C1orf135 directs DNA double-strand breaks towards the homologous recombination repair pathway” (Nature Communications, 2017):
Values belong to the binder of their own block, whether it stands above or below them.

Tests used:
MBP-tagged CtIP = target: T1, MBP-tagged CtIP (UniProt Q99708 1-897); assay: pull-down; GST or GST-AUNIP (wild type or mutant) on glutathione-Sepharose incubated with MBP-CtIP in NETN buffer, 2 h at 4 °C; five washes; CtIP detected by monoclonal anti-CtIP antibody; settings: both partners purified
T1 construct: CtIP; also called MBP-CtIP; source: E. coli BL21, purified (Amylose resin, eluted with maltose)
T1 sequence (Q99708 whole entry): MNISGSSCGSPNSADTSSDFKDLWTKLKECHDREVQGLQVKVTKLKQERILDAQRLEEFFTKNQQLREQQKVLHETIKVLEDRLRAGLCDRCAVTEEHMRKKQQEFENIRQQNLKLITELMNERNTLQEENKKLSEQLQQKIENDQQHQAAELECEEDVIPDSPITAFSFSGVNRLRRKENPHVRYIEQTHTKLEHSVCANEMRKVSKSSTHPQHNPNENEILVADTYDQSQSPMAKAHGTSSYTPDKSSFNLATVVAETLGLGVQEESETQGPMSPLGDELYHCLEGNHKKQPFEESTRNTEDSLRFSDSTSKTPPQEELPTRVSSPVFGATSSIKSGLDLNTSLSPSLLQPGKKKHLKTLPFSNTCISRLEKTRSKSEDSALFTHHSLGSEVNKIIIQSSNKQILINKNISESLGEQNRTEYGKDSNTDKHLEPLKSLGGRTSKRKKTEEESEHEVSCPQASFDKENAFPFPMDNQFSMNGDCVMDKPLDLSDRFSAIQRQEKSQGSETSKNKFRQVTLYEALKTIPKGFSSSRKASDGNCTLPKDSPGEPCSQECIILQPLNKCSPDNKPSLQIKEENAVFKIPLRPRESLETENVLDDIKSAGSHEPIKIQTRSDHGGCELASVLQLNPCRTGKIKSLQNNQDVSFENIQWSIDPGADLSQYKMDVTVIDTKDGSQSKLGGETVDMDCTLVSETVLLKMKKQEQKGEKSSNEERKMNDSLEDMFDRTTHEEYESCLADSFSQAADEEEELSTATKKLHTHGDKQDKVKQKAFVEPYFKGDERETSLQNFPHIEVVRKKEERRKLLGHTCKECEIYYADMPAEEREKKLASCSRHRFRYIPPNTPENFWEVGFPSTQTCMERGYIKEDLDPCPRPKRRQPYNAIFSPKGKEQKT

MBP-AUNIP = target: T2, MBP-AUNIP (UniProt Q9H7T9 1-357); assay: EMSA; 10 mM MgCl2; 20 nM biotin-DNA, 0-200 nM protein, 1x LightShift binding buffer with 10 mM MgCl2, 2.5% glycerol, 0.05% NP-40, 20 min, room temperature; 10% native PAGE; pH and salt not given; settings: protein: recombinant, label: 5'-biotin on oligo 1
T2 sequence: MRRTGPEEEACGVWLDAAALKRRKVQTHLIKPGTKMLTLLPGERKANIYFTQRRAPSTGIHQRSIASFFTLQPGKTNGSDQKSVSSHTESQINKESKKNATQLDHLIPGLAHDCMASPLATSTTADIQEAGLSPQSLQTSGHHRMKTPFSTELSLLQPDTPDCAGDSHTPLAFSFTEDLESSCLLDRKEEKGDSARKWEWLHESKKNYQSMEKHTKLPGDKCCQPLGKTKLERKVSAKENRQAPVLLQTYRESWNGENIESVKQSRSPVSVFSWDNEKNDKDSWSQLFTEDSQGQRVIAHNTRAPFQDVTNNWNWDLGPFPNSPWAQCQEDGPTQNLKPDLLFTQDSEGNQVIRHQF

MBP-AUNIP Δ25-70 = target: T3, MBP-AUNIP Δ25-70 (UniProt Q9H7T9 1-357, del25-70); assay: EMSA; 10 mM MgCl2; up to 200 nM protein; 20 nM biotin-DNA, 0-200 nM protein, 1x LightShift binding buffer with 10 mM MgCl2, 2.5% glycerol, 0.05% NP-40, 20 min, room temperature; 10% native PAGE; pH and salt not given; settings: protein: recombinant; label: 5'-biotin on oligo 1; fork; 31 bp duplex, two 28 nt arms (3' arm of oligo 1, 5' arm of oligo 2)
T3 sequence: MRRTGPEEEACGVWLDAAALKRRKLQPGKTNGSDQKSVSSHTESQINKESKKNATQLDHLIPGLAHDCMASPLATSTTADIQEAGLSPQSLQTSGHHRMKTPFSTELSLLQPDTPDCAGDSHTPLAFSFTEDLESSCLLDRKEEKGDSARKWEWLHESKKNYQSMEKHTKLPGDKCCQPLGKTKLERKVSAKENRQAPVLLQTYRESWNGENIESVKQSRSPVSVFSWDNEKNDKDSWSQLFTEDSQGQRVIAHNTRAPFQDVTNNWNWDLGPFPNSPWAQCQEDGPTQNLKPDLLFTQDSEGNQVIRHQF

binding result (MBP-tagged CtIP): binds
B1: GST-tagged AUNIP C-terminal region (281-357) (domain or fragment, human, UniProt Q9H7T9 281-357, looked up)
chain: KDSWSQLFTEDSQGQRVIAHNTRAPFQDVTNNWNWDLGPFPNSPWAQCQEDGPTQNLKPDLLFTQDSEGNQVIRHQF
notes: source: E. coli BL21, purified on glutathione-Sepharose resin (kept on the beads)

binding result (MBP-tagged CtIP): binds
B2: GST-tagged AUNIP (wild-type) (natural protein, human, UniProt Q9H7T9 1-357, looked up)
chain: MRRTGPEEEACGVWLDAAALKRRKVQTHLIKPGTKMLTLLPGERKANIYFTQRRAPSTGIHQRSIASFFTLQPGKTNGSDQKSVSSHTESQINKESKKNATQLDHLIPGLAHDCMASPLATSTTADIQEAGLSPQSLQTSGHHRMKTPFSTELSLLQPDTPDCAGDSHTPLAFSFTEDLESSCLLDRKEEKGDSARKWEWLHESKKNYQSMEKHTKLPGDKCCQPLGKTKLERKVSAKENRQAPVLLQTYRESWNGENIESVKQSRSPVSVFSWDNEKNDKDSWSQLFTEDSQGQRVIAHNTRAPFQDVTNNWNWDLGPFPNSPWAQCQEDGPTQNLKPDLLFTQDSEGNQVIRHQF
notes: AUNIP/C1orf135, human; pCold vectors may add further N-terminal vector residues; also called GST-AUNIP; recombinant GST-AUNIP; source: E. coli BL21, purified on glutathione-Sepharose resin (kept on the beads)

B3: splayed arm (dsDNA)
DNA 1: GACGCTGCCGAATTCTACCAGTGCCTTGCTAGGACATCTTTGCCCACCTGCAGGTTCAC
DNA 2: ATAGTCGGATCCTCTAGACAGCTCCATGTAGCAAGGCACTGGTAGAATTCGGCAGCGTC
binding result (MBP-AUNIP; fork, 31 bp duplex, two 28 nt arms (3' arm of oligo 1, 5' arm of oligo 2)): binds | binding result (MBP-AUNIP Δ25-70): no binding

B4: 3'-flap (dsDNA)
DNA 1: GACGCTGCCGAATTCTACCAGTGCCTTGCTAGGACATCTTTGCCCACCTGCAGGTTCAC
DNA 2: ATAGTCGGATCCTCTAGACAGCTCCATGTAGCAAGGCACTGGTAGAATTCGGCAGCGTC
DNA 3: CATGGAGCTGTCTAGAGGATCCGACTAT
binding result (MBP-AUNIP; 1:2 31 bp, 2:3 28 bp, 28 nt 3' flap of strand 1): binds

B5: 5'-flap (dsDNA)
DNA 1: GACGCTGCCGAATTCTACCAGTGCCTTGCTAGGACATCTTTGCCCACCTGCAGGTTCAC
DNA 2: ATAGTCGGATCCTCTAGACAGCTCCATGTAGCAAGGCACTGGTAGAATTCGGCAGCGTC
DNA 3: GTGAACCTGCAGGTGGGCAAAGATGTCC
binding result (MBP-AUNIP; 1:2 31 bp, 1:3 28 bp, 28 nt 5' flap of strand 2): binds
